# Experimental data from IntAct's records for PubMed 17517630.
# B1: Rho GTPase-activating protein 7 (Homo sapiens), Q96QB1-1 (parent)
# chain: MCRKKPDTMILTQIEAKEACDWLRATGFPQYAQLYEDFLFPIDISLVKREHDFLDRDAIEALCRRLNTLNKCAVMKLEISPHRKRSDDSDEDEPCAISGKWTFQRDSKRWSRLEEFDVFSPKQDLVPGSPDDSHPKDGPSPGGTLMDLSERQEVSSVRSLSSTGSLPSHAPPSEDAATPRTNSVISVCSSSNLAGNDDSFGSLPSPKELSSFSFSMKGHEKTAKSKTRSLLKRMESLKLKSSHHSKHKAPSKLGLIISGPILQEGMDEEKLKQLNCVEISALNGNRINVPMVRKRSVSNSTQTSSSSSQSETSSAVSTPSPVTRTRSLSACNKRVGMYLEGFDPFNQSTFNNVVEQNFKNRESYPEDTVFYIPEDHKPGTFPKALTNGSFSPSGNNGSVNWRTGSFHGPGHISLRRENSSDSPKELKRRNSSSSMSSRLSIYDNVPGSILYSSSGDLADLENEDIFPELDDILYHVKGMQRIVNQWSEKFSDEGDSDSALDSVSPCPSSPKQIHLDVDNDRTTPSDLDSTGNSLNEPEEPSEIPERRDSGVGASLTRSNRHRLRWHSFQSSHRPSLNSVSLQINCQSVAQMNLLQKYSLLKLTALLEKYTPSNKHGFSWAVPKFMKRIKVPDYKDRSVFGVPLTVNVQRTGQPLPQSIQQAMRYLRNHCLDQVGLFRKSGVKSRIQALRQMNEGAIDCVNYEGQSAYDVADMLKQYFRDLPEPLMTNKLSETFLQIYQYVPKDQRLQAIKAAIMLLPDENREVLQTLLYFLSDVTAAVKENQMTPTNLAVCLAPSLFHLNTLKRENSSPRVMQRKQSLGKPDQKDLNENLAATQGLAHMIAECKKLFQVPEEMSRCRNSYTEQELKPLTLEALGHLGNDDSADYQHFLQDCVDGLFKEVKEKFKGWVSYSTSEQAELSYKKVSEGPPLRLWRSVIEVPAVPEEILKRLLKEQHLWDVDLLDSKVIEILDSQTEIYQYVQNSMAPHPARDYVVLRTWRTNLPKGACALLLTSVDHDRAPVVGVRVNVLLSRYLIEPCGPGKSKLTYMCRVDLRGHMPEWYTKSFGHLCAAEVVKIRDSFSNQNTETKDTKSR
# Variants of: B1
# Conditions: with tens1_chick TNS1, Q04205
# tens1_chick TNS1, Q04205, sequence (Q04205 whole entry): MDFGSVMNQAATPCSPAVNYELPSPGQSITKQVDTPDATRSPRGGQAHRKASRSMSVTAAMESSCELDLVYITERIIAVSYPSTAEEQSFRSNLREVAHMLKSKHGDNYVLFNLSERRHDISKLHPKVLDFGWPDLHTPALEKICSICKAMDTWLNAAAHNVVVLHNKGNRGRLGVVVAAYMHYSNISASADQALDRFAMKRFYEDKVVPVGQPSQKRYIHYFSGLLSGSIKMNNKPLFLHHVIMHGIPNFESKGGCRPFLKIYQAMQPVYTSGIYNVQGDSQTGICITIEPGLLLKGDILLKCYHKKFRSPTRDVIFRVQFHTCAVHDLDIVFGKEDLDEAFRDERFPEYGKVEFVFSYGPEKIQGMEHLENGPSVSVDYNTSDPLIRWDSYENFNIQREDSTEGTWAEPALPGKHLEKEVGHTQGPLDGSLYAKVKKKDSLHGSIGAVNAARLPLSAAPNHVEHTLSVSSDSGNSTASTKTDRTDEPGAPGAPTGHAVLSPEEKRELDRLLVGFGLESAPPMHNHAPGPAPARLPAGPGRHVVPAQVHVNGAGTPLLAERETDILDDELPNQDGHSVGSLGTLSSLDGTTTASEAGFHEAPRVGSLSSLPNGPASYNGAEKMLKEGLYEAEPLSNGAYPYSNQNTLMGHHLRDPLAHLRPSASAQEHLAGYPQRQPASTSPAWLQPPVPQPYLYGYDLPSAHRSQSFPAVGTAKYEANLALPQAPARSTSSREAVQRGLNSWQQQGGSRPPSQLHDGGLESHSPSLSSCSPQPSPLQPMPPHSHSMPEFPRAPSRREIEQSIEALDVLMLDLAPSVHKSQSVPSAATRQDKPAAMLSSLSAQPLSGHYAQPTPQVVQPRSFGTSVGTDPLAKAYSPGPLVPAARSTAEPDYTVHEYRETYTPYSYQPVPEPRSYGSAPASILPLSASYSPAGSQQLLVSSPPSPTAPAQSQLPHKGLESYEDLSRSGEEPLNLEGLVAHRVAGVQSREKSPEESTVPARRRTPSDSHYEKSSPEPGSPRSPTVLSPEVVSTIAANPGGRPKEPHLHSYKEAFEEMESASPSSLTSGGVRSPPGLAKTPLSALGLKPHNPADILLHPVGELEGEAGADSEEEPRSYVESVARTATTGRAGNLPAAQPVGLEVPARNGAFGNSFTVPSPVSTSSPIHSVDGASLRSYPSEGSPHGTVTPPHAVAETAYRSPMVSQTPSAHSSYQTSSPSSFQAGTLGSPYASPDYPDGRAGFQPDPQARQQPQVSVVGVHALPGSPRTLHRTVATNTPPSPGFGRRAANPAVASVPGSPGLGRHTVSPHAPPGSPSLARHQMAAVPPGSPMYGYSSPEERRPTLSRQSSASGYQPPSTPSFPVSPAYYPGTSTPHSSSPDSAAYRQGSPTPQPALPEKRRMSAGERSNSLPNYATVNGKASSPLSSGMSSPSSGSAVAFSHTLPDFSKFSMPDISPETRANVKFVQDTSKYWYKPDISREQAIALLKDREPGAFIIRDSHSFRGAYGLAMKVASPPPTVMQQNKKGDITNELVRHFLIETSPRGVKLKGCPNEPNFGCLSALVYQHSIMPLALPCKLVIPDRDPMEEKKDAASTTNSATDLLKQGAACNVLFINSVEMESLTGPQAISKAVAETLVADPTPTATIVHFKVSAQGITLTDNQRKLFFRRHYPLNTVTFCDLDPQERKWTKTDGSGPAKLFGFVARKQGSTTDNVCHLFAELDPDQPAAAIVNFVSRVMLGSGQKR
row,Variant,effect of a mutation on the interaction
1,Y442F,disrupting interaction strength
